In patent US7589167B2, “ZA loops of bromodomains” (J. David Gladstone Institutes, priority 2000, dated 2009):
Where a SMILES comes first, the peptide text is derived from it.

B1: Tat: wild type HIV-1 Tat protein (SEQ ID NO:45) (protein)
chain: MEPVDPRLEPWKHPGSQPKTASNNCYCKRCCLHCQVCFTKKGLGISYGRKKRRQRRRAPQDSKTHQVSLSKQPASQPRGDPTGPKESKKKVERETETDPED
modifications: Human immunodeficiency virus type 1; Tat protein

Columns and labels:
[1] = biological target: T1, P/CAF bromodomain (Homo sapiens, UniProt Q92831, P804A/P805A); assay: Peptide competition assay with biotinylated wild type Tat AcK50 peptide (western blot); format: binding; details: protein ~10 μM, wild type:mutant peptide 1:2
T1 construct: poly-His (N, cleaved yes); made in house; host or cells: Escherichia coli BL21(DE3)
T1 sequence (Q92831 719-832 P804A/P805A): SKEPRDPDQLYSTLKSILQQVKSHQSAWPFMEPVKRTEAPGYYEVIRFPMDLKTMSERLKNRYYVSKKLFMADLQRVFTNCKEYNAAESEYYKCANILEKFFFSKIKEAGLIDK
Description: Peptide binding assay. […] Streptavidin agarose (10 μL) was added to mixture and the beads were washed twice in the Tris buffer with 500 mM NaCl and 0.1% NP-40. Proteins were eluted from the argarose beads in SDS buffer and separated on a 14% SDS-PAGE. The resolved proteins were transferred onto nitrocellulose membrane (Pharmacia), and the membrane was blocked overnight with 5% non-fat milk in washing buffer of 20 mM Tris, pH 7.5, plus 150 mM NaCl and 0.1% Tween-20 at 4° C. Western blotting was performed with anti-GST antibody (Sigma) and goat anti-rabbit IgG conjugated with horseradish-peroxidase (Promega) and developed by chemiluminescence. Peptide competition experiments were performed by incubating various non-biotinylated and mutant Tat peptide with the P/CAF bromodomain and the biotinylated and wild type Tat peptide. The molar ratio of the wild type and mutant Tat peptides in the mixture were kept at 1:2. The binding results were analyses by using the procedure as described above.

[2] = tested on: Tat transactivation activity; assay: Superinduction of Tat transactivation activity by P/CAF; format: cell-based, HIV-1
Description: FIG. 7 is a bar graph of the measurement of superinduction of Tat transactivation activity by P/CAF. Tat-KK is the wild type Tat protein, and Tat-RR is the double mutant Tat carrying lysine to arginine mutations at K50 and K51 positions.

[3] = biological target: T2, P/CAF (Homo sapiens, UniProt Q92831); assay: Western blot assay to detect P/CAF interaction with the Tat protein in cells; format: cell-based; details: FLAG-Tat, HA-P/CAF
T2 construct: HA; expressed in transfected cells
T2 sequence (Q92831 whole entry): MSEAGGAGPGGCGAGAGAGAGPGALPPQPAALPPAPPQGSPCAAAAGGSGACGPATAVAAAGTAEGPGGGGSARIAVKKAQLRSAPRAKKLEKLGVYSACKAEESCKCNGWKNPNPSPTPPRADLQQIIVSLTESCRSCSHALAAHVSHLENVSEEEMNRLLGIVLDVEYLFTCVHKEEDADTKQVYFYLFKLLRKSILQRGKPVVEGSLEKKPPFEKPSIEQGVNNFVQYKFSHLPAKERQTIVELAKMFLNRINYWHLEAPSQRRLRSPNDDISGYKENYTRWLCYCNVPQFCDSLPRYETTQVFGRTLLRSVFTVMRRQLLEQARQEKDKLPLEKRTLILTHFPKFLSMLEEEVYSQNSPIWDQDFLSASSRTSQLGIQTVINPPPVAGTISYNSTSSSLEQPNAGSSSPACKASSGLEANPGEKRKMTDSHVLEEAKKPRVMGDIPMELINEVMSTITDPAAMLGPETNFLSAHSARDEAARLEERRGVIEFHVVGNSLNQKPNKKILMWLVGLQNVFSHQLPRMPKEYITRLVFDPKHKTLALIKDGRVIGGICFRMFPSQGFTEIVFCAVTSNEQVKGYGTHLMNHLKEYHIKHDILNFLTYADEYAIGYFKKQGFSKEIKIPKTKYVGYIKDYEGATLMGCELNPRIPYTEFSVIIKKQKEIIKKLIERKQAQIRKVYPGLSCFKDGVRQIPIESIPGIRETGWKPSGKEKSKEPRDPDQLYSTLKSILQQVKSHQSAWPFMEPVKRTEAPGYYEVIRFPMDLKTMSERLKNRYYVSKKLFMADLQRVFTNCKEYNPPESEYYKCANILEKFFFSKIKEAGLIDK
Description: FIGS. 8A-8B show a western blot assay to detect P/CAF interaction with the Tat protein. Note that the protein-protein interaction was only observed with the wild type Tat but not with the Tat K50R/K51R mutant protein. The FLAG was joined to the Tat peptide, whereas the HA-tag was joined to P/CAF.

Molecule	competition with / binding relative to Tat AcK50 peptide (qualitative) [1]	increase of Tat transactivation activity upon P/CAF stimulation [2] [fold]	specific interaction with P/CAF in cells [3]
CC(=O)NCCCC[C@H](NC(=O)[C@H](CCCCN)NC(=O)[C@H](CS)NC(=O)[C@H](Cc1ccc(O)cc1)NC(=O)[C@H](CS)NC(=O)[C@H](CC(N)=O)NC(=O)[C@@H](N)[C@@H](C)O)C(=O)N[C@@H](CS)C(=O)N[C@@H](CS)C(=O)N[C@@H](Cc1ccccc1)C(=O)N[C@@H](Cc1c[nH]cn1)C(=O)O [Tat AcK 28 peptide, TNCYCK-AcK-CCFH] (H-TNCYCKK(Ac)CCFH-OH)	almost no competition		
B1		≤ 30	detected
